Measured values reported in PMC4182028.

How the values were obtained:
[1] = target: Chaetomium thermophilum p44 (residues 1-285) (Chaetomium thermophilum)
[2] = tested on: ctXPD wild type (Chaetomium thermophilum); experiment: BLI; conditions: 3'-biotin; BLI (Octet RED): 20 mM Tris-HCl pH 8.0, 150 mM NaCl, 10 mM MgCl2, 1 mM DTT, 1 mg/ml BSA; 0.5-5 uM ctXPD; temperature not stated
[3] = tested on: ctXPD Y156A (Chaetomium thermophilum); experiment: BLI; conditions: 3'-biotin; BLI (Octet RED): 20 mM Tris-HCl pH 8.0, 150 mM NaCl, 10 mM MgCl2, 1 mM DTT, 1 mg/ml BSA; 0.5-5 uM ctXPD; temperature not stated
[4] = tested on: ctXPD R195E (Chaetomium thermophilum); experiment: BLI; conditions: 3'-biotin; BLI (Octet RED): 20 mM Tris-HCl pH 8.0, 150 mM NaCl, 10 mM MgCl2, 1 mM DTT, 1 mg/ml BSA; 0.5-5 uM ctXPD; temperature not stated
[5] = tested on: ctXPD K719W (Chaetomium thermophilum); experiment: BLI; conditions: 3'-biotin; BLI (Octet RED): 20 mM Tris-HCl pH 8.0, 150 mM NaCl, 10 mM MgCl2, 1 mM DTT, 1 mg/ml BSA; 0.5-5 uM ctXPD; temperature not stated
[6] = tested on: ctXPD R195A (Chaetomium thermophilum); experiment: BLI; conditions: 3'-biotin; BLI (Octet RED): 20 mM Tris-HCl pH 8.0, 150 mM NaCl, 10 mM MgCl2, 1 mM DTT, 1 mg/ml BSA; 0.5-5 uM ctXPD; temperature not stated
[7] = tested on: ctXPD wild type;ctp44 (1-285) (Chaetomium thermophilum;Chaetomium thermophilum); experiment: BLI; conditions: 3'-biotin; BLI (Octet RED): 20 mM Tris-HCl pH 8.0, 150 mM NaCl, 10 mM MgCl2, 1 mM DTT, 1 mg/ml BSA; 0.5-5 uM ctXPD; temperature not stated
[8] = tested on: ctXPD K48R (Chaetomium thermophilum); experiment: BLI; conditions: 3'-biotin; BLI (Octet RED): 20 mM Tris-HCl pH 8.0, 150 mM NaCl, 10 mM MgCl2, 1 mM DTT, 1 mg/ml BSA; 0.5-5 uM ctXPD; temperature not stated
[9] = tested on: ctXPD F192A (Chaetomium thermophilum); experiment: BLI; conditions: 3'-biotin; BLI (Octet RED): 20 mM Tris-HCl pH 8.0, 150 mM NaCl, 10 mM MgCl2, 1 mM DTT, 1 mg/ml BSA; 0.5-5 uM ctXPD; temperature not stated

Chaetomium thermophilum XPD wild type (enzyme)
ssDNA-dependent ATPase activity of ctXPD with ctp44 (1-285) added (0.12 without ctp44) (mol ATP·s^−1 ·mol^−1 XPD) [1]: 0.7

GACTACGTACTGTTACGGCTCCATCTCTACCGCAATCAGGCCAGATCTGC [50-nt ssDNA (BLI)]
Kd [2]: 118 nM
Kd [3]: 561 nM
Kd [4]: 916 nM
Kd [5]: 192 nM
Kd [6]: 1040 nM
Kd [7]: 93 nM
Kd [8]: 159 nM
Kd [9]: 668 nM

Chaetomium thermophilum XPD K719W (enzyme)
fluorescence-based helicase activity of ctXPD K719W with ctp44 (1-285) added (Rel. Fluorescence Change·s^−1) [1]: 4.8
ssDNA-dependent ATPase activity of ctXPD K719W with ctp44 (1-285) added (mol ATP·s^−1 ·mol^−1 XPD) [1]: 0.12
